Source: FireProtDB (doi:10.1093/protein/14.12.967)
“And” between values parts separate entries of the source, which are not always exact repeats. Identical values can stand only once.

Settings: Canis lupus familiaris, Thermal, DSC, reversible: yes, whole UniProt chain shown
[1] = pH 1.95, glycine hydrochloride 50 mM, transition: 3
[2] = pH 4.5, 66.4 °C, sodium acetate 50 mM

B1: Lysozyme C, milk isozyme wild type, P81708 (protein)
chain: KIFSKCELARKLKSMGMDGFHGYSLANWVCMAEYESNFNTQAFNGRNSNGSSDYGIFQLNSKWWCKSNSHSSANACNIMCSKFLDDNIDDDIACAKRVVKDPNGMSAWVAWVKHCKGKDLSKYLASCNL
Tm [1]: 60 °C
unfolding enthalpy (calorimetric) [1]: 29.6 kcal/mol
unfolding enthalpy (calorimetric) (pH 2.74, glycine hydrochloride 50 mM, transition: 3): 21.3 kcal/mol and 37.8 kcal/mol
unfolding enthalpy (calorimetric) (pH 3, glycine hydrochloride 50 mM, transition: 3): 31.8 kcal/mol and 36.9 kcal/mol
unfolding enthalpy (calorimetric) (pH 3.24, glycine hydrochloride 50 mM, transition: 3): 35.6 kcal/mol and 43 kcal/mol
unfolding enthalpy (calorimetric) (pH 3.46, glycine hydrochloride 50 mM, transition: 3): 37.7 kcal/mol and 42 kcal/mol
unfolding enthalpy (calorimetric) [2]: 30.9 kcal/mol
unfolding free energy [2]: 2.15 kcal/mol
unfolding enthalpy (calorimetric) (pH 4.5, sodium acetate 50 mM, CaCl2 10 mM, transition: 3): 67.4 kcal/mol and 44.4 kcal/mol
unfolding enthalpy (calorimetric) (pH 4.5, sodium acetate 50 mM, transition: 3): 42.1 kcal/mol and 44.4 kcal/mol
